The record followed here is patent US20070167369A1 (KYUNGPOOK NATIONAL UNIVERSITY INDUSTRY ACADEMIC COOPERATION …, published 2007).

In assay [1] the target is T1, αvβ3 integrin (human, UniProt P06756 31-1048; P05106 27-788).
T1 construct: whole, on cells; On human umbilical vein endothelial cells (HUVECs); also called αvβ3 integrin of endothelial cells
The experiment in a line: binding of His-tagged protein to HUVECs in 96-well plates, His-probe-HRP detection, Scatchard analysis.
Experimental: (§1) HUVECs (3×10⁴ cells/100 μl) were seeded in the 96-well plates and then incubated with increasing concentrations of each protein for 1 hour at room temperature. Cell binding of each protein was detected by His-probe-HRP antibody and quantified by measuring hexosaminidase.

Assay [2] concerns the target T1, αvβ3 integrin. Briefly: binding to HUVECs, Scatchard analysis (Example 16); reference: fas-1 domain (βig-h3 D-IV).
Experimental: as §1

T1 sequence (P06756 31-1048, chain 1 of 2): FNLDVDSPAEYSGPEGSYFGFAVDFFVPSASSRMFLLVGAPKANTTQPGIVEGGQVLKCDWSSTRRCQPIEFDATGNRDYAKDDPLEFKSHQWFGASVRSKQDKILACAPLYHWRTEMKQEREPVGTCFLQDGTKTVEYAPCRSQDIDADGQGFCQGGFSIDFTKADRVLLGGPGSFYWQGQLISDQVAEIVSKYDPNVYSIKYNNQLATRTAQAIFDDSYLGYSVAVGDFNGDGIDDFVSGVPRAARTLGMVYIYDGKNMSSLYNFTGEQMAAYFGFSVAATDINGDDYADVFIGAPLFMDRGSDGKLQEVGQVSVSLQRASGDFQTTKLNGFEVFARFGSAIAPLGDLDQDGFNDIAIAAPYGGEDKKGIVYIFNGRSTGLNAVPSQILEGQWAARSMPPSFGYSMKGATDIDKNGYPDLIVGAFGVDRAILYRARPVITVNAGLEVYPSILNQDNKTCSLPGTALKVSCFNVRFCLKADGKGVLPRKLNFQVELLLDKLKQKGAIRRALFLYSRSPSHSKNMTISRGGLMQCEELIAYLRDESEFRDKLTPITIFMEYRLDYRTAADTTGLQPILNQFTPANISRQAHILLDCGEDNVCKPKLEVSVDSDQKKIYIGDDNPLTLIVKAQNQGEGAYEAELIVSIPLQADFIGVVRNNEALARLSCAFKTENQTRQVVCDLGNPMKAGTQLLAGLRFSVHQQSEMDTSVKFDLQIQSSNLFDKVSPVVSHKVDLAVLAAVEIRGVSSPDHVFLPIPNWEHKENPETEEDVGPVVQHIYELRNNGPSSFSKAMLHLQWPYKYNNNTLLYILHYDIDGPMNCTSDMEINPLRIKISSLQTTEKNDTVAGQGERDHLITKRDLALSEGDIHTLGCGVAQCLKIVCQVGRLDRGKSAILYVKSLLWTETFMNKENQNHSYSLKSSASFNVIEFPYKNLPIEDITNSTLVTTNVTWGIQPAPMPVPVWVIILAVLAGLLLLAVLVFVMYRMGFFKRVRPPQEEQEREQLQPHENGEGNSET
T1 sequence (P05106 27-788, chain 2 of 2): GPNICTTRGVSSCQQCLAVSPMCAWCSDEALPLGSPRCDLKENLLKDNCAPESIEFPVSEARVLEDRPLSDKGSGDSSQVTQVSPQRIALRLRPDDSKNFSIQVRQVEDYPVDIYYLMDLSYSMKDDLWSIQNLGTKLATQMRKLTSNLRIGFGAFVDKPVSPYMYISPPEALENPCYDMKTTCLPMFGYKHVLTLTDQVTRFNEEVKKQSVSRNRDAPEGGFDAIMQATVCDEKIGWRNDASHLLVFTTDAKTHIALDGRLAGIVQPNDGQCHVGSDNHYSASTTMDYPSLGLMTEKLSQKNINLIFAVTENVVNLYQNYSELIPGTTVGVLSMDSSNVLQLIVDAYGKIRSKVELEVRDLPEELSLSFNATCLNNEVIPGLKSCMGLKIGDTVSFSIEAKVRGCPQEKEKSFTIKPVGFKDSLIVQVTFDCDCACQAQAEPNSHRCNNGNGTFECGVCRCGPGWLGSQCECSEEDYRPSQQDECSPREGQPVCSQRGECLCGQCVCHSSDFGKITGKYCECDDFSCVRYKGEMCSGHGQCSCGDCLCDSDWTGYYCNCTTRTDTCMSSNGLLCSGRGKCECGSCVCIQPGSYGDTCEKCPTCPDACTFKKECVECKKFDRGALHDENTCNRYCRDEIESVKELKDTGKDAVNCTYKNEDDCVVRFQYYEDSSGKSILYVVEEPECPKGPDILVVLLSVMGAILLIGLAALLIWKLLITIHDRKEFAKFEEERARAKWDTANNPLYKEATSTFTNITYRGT

B1: recombinant human βig-h3 protein βig-h3 His-β-b (truncated βig-h3) (ligand)
chain: WYQRKICGKSTVISYECCPGYEKVPGEKGCPAALPLSNLYETLGVVGSTTTQLYTDRTEKLRPEMEGPGSFTIFAPSNEAWASLPAEVLDSLVSNVNIELLNALRYHMVGRRVLTDELKHGMTLTSMYQNSNIQIHHYPNGIVTVNCARLLKADHHATNGVVHLIDKVISTITNNIQQIIEIEDTFETLRAAVAASGLNTMLEGNGQYTLLAPTNEAFEKIPSETLNRILGDPEALRDLLNNHILKSAMCAEAIVAGLSVETLEGTTLEVGCSGDMLTINGKAIISNKDILATNGVIHYIDELLIPDSAKTLFELAAESDVSTAIDLFRQAGLGNHLSGSERLTLLAPLNSVFKDGTPPIDAHTRNLLRNHIIKDQLASKYLYHGQTLETLGGKKLRVFVYRNSLCIENSCIAAHDKRGRYGTLFTMDRVLTPPMGTVMDVLKGDNRFSMLVAAIQSAGLTETLNREGVYTVFAPTNEAFRALPPRERSRLLGDAKELANILKYHIGDEILVSGGIGALVRLKSLQGDKLEVSLKNNVVSVNKEPVAEPDIMATNGVVHVITNVLQPPANRPQERGDELADSALEI
notes: also called βig-h3 His-1-b; Wild-type; not shown: vector-derived residues / His tag from the pET-29 vector (Ni-NTA purified, detected with His-probe-HRP)
As usually defined, the Kd is the constant that tells how readily two partners part at equilibrium. The low end stands for higher affinity, the high end for lower affinity. Take B1: in the assay with αvβ3 integrin [1], the dissociation constant Kd was ~0.303 µM. In the assay with αvβ3 integrin [2], the “Kd relative to that of the fas-1 domain of βig-h3” value was 100 fold less.

B2: βig-h3 D-IV (recombinant protein containing the fourth fas-1 domain of human βig-h3) (ligand)
chain: MGTVMDVLKGDNRFSMLVAAIQSAGLTETLNREGVYTVFAPTNEAFRALPPRERSRLLGDAKELANILKYHIGDEILVSGGIGALVRLKSLQGDKLEVSLKNNVVSVNKEPVAEPDIMATNGVVHVITNVL
notes: Cloned in pET-29b(+), Ni-NTA purified; also called fas-1 protein
On to B2, for which the Kd with αvβ3 integrin [1] is ~30 µM.
